The assay addresses HA-T-AGM protein (recombinant soluble trimeric hemagglutinin of Influenza A/Guangdong-Maonan/SWL1536/2019 (H1N1) pdm09-like virus) (Influenza A/Guangdong-Maonan/SWL1536/2019 (H1N1) | not stated). Briefly: SEC. A general note: Size exclusion chromatography separates by hydrodynamic size, large species first.

As usually defined, the stoichiometry N is the number of molecules, sites or subunits per partner or assembly. On to “HA-T-AGM protein (recombinant soluble trimeric hemagglutinin of Influenza A/Guangdong-Maonan/SWL1536/2019 (H1N1) pdm09-like virus)”, for which the stoichiometry N amounted to 3.
